Source: patent publication KR20220013311A (dated 2022)

Experiments:
[1] = biological target: T1, SARS-CoV-2 바이러스 표면 단백질 (RBD) (SARS-CoV-2, UniProt P0DTC2 319-541); assay: BLI (Octet), full IgG against RBD
[2] = biological target: T1, SARS-CoV-2 바이러스 표면 단백질 (RBD); assay: BLI (Octet), full IgG against SARS-CoV-2 RBD
[3] = biological target: T1, SARS-CoV-2 바이러스 표면 단백질 (RBD); assay: BLI (Octet), full IgG against RBD; printed as kdis

B1: No. 32 항체 (Full IgG) (antibody, V domains shown)
VH: EVQLVQSGGGLIQPGGSLRLSCAASEFIVSSNYMTWVRQAPGKGLEWVSIIYPGGSTYYADSVKGRFTISRDNSKNTLYLRMNSLRAEDTAVYYCARDLPLTGTTLDYWGQGTLVTVSS
VL: not shown
Kd [1]: 0.305 nM
kon [1]: 633000 M⁻¹ s⁻¹
Kd [2]: 0.147 nM
koff [3]: 0.000193 s⁻¹
